Laboratory results: PMC12126490, “The HP1 box of KAP1 organizes HP1α for silencing of endogenous retroviral elements in embryonic stem cells” (Nature Communications, 2025)

What was measured:
FL HP1α = experiment: mass photometry, mixture of FL HP1α and FL KAP1 (Fig. 6g)
Procedure: For MP assays shown in Fig. 6g–I and Supplementary Fig. 12, FL KAP1 and FL HP1α were expressed and purified as described[38],[67]. MP measurements were performed on a Refeyn OneMP instrument (Refeyn Ltd). The calibration was done with a native marker protein standard mix (NativeMark Unstained Protein Standard, Thermo Scientific), which contains proteins ranging from 20 to 1200 kDa. Coverslips (24 × 50 mm, No. 1.5H, Marienfeld) were cleaned by sequential sonication in Milli-Q water, isopropanol and Milli-Q-water, followed by drying with nitrogen. For each acquisition 2 μL of protein solution was applied to 18 μL of buffer (10 mM HEPES pH 7.5, 150 mM NaCl) in a gasket (CultureWellTM Reusable Gasket, Grace Bio-Labs) on a coverslip. To capture the movie, 400 nM HP1α was diluted 10× and 200 nM KAP1 was diluted 10× for a final concentration of 40 nM and 20 nM, respectively. The final molar ratios of HP1α:KAP1 were 1:0, 1:1 and 2:1. Movies were recorded at 999 Hz with an exposure time of 0.95 ms by using the AcquireMP software (Refeyn Ltd). All mass photometry movies were processed and analysed in the DiscoverMP software (Refeyn Ltd).

[1] = tested on: endogenous retroelements in KAP1 cKO ESCs; experiment: ATAC-seq chromatin accessibility; assay type: cell-based, mouse; conditions: exogenous expression in KAP1 cKO ESCs, 2 μg/mL doxycycline, 2 μM 4-OHT 48 h
Procedure: ESCs were maintained under standard conditions on gelatin-coated plates at 37 °C at 5% CO2 in Knockout DMEM (Thermo Fisher) supplemented with NEAA, GlutaMAX, penicillin/streptomycin (Thermo Fisher), 15% ESC-screened fetal bovine serum (Hyclone), 0.1 mM 2-mercaptoethanol (Fisher), and leukemia-inhibitory factor (LIF). Generation of KAP1 cKO ESCs has been described previously. The piggybac transposon system was used to stably integrate transgenic Flag-tagged WT or V488E mutant KAP1 under control of an rtTA promoter (Systems Biosciences, PB-TRE-EGFP-EF1a-rtTA) into the inducible KAP1 cKO ESCs. Exogenous expression of WT or V488E mutant KAP1 was induced with 2 μg/mL doxycycline for 48 h and maintained in doxycycline prior to endogenous KAP1 deletion. KAP1 deletion was induced with 2 μM 4-OHT (Sigma) treatment for 48 h. […]
The modified ATAC-sequencing protocol Omni-ATAC was performed. […] Number of further PCR cycles required was determined using KAPA Library Quantification Kit (KK4854). […]
Quality of datasets was assessed using the FastQC tool. Raw reads were adapter and quality trimmed using Trimgalore. Trimmed reads were aligned to the mouse reference genome (mm10) with Bowtie2. Multimapping reads were randomly assigned. Optical duplicate reads were filtered using Picard (https://broadinstitute.github.io/picard/). Reads which mapped to the mitochondrial genome were removed with Samtools. […]

B1: FL KAP1: full-length KAP1 (KRAB-associated protein 1, TRIM28, TIF1β) (protein)
chain: MAASAAAASAAAASAASGSPGPGEGSAGGEKRSTAPSAAASASASAAASSPAGGGAEALELLEHCGVCRERLRPEREPRLLPCLHSACSACLGPAAPAAANSSGDGGAAGDGTVVDCPVCKQQCFSKDIVENYFMRDSGSKAATDAQDANQCCTSCEDNAPATSYCVECSEPLCETCVEAHQRVKYTKDHTVRSTGPAKSRDGERTVYCNVHKHEPLVLFCESCDTLTCRDCQLNAHKDHQYQFLEDAVRNQRKLLASLVKRLGDKHATLQKSTKEVRSSIRQVSDVQKRVQVDVKMAILQIMKELNKRGRVLVNDAQKVTEGQQERLERQHWTMTKIQKHQEHILRFASWALESDNNTALLLSKKLIYFQLHRALKMIVDPVEPHGEMKFQWDLNAWTKSAEAFGKIVAERPGTNSTGPAPMAPPRAPGPLSKQGSGSSQPMEVQEGYGFGSGDDPYSSAEPHVSGVKRSRSGEGEVSGLMRKVPRVSLERLDLDLTADSQPPVFKVFPGSTTEDYNLIVIERGAAAAATGQPGTAPAGTPGAPPLAGMAIVKEEETEAAIGAPPTATEGPETKPVLMALAEGPGAEGPRLASPSGSTSSGLEVVAPEGTSAPGGGPGTLDDSATICRVCQKPGDLVMCNQCEFCFHLDCHLPALQDVPGEEWSCSLCHVLPDLKEEDGSLSLDGADSTGVVAKLSPANQRKCERVLLALFCHEPCRPLHQLATDSTFSLDQPGGTLDLTLIRARLQEKLSPPYSSPQEFAQDVGRMFKQFNKLTEDKADVQSIIGLQRFFETRMNEAFGDTKFSAVLVEPPPMSLPGAGLSSQELSGGPGDGP
- effect on oligomerization of HP1α (FL HP1α): Oligomerization of HP1α was further increased
- restoration of closed chromatin at IAPEz, MERVK10C and ETn [1]: able to partially restore closed chromatin at IAPEz, MERVK10C and ETn elements
